Test results reported in the supplement of paper PMC11246515.
± gives the standard deviation of the averaged measurements.

Test: total protein half-life in vivo (active degradation + dilution); higher = more stable protein
[1] = E. coli NCM3722 delta-clpP delta-lon delta-hslV, growth: N-lim chemostat, doubling time 6 h
[2] = E. coli NCM3722 delta-clpP, growth: N-lim chemostat, doubling time 6 h
[3] = E. coli NCM3722 delta-hslV, growth: N-lim chemostat, doubling time 6 h
[4] = E. coli NCM3722 delta-lon, growth: N-lim chemostat, doubling time 6 h
[5] = E. coli NCM3722 delta-smpB, growth: N-lim chemostat, doubling time 6 h
[6] = wild type E. coli NCM3722, growth: C-lim chemostat, doubling time 3 h
[7] = wild type E. coli NCM3722, growth: C-lim chemostat, doubling time 6 h
[8] = wild type E. coli NCM3722, growth: C-lim chemostat, doubling time 12 h
[9] = wild type E. coli NCM3722, growth: N-lim chemostat, doubling time 6 h
[10] = wild type E. coli NCM3722, growth: N-lim chemostat, doubling time 12 h
[11] = wild type E. coli NCM3722, growth: P-lim chemostat, doubling time 6 h
[12] = wild type E. coli NCM3722, growth: P-lim chemostat, doubling time 12 h

Sequence	total protein half-life in vivo [1]	total protein half-life in vivo [2]	total protein half-life in vivo [3]	total protein half-life in vivo [4]	total protein half-life in vivo [5]	total protein half-life in vivo [6]	total protein half-life in vivo [7]	total protein half-life in vivo [8]	total protein half-life in vivo [9]	total protein half-life in vivo [10]	total protein half-life in vivo [11]	total protein half-life in vivo [12]
MSDMAERLALHEFTENAYLNYSMYVIMDRALPFIGDGLKPVQRRIVYAMSELGLNASAKFKKSARTVGDVLGKYHPHGDSACYEAMVLMAQPFSYRYPLVDGQGNWGAPDDPKSFAAMRYTESRLSKYSELLLSELGQGTADWVPNFDGTLQEPKMLPARLPNILLNGTTGIAVGMATDIPPHNLREVAQAAIALIDQPKTTLDQLLDIVQGPDYPTEAEIITSRAEIRKIYENGRGSVRMRAVWKKEDGAVVISALPHQVSGARVLEQIAAQMRNKKLPMVDDLRDESDHENPTRLVIVPRSNRVDMDQVMNHLFATTDLEKSYRINLNMIGLDGRPAVKNLLEILSEWLVFRRDTVRRRLNYRLEKVLKRLHILEGLLVAFLNIDEVIEIIRNEDEPKPALMSRFGLTETQAEAILELKLRHLAKLEEMKIRGEQSELEKERDQLQGILASERKMNNLLKKELQADAQAYGDDRRSPLQEREEAKAMSEHDMLPSEPVTIVLSQMGWVRSAKGHDIDAPGLNYKAGDSFKAAVKGKSNQPVVFVDSTGRSYAIDPITLPSARGQGEPLTGKLTLPPGATVDHMLMESDDQKLLMASDAGYGFVCTFNDLVARNRAGKALITLPENAHVMPPVVIEDASDMLLAITQAGRMLMFPVSDLPQLSKGKGNKIINIPSAEAARGEDGLAQLYVLPPQSTLTIHVGKRKIKLRPEELQKVTGERGRRGTLMRGLQRIDRVEIDSPRRASSGDSEE [P0AFI2]	5.85 ± 0.14 h	6.82 ± 1.4 h	3.67 ± 0.47 h	3.93 ± 0.34 h	3.2 ± 0.17 h	2.44 ± 0.17 h	3.745 ± 0.031 h	5.99 ± 0.32 h	3.42 ± 0.22 h	5.17 ± 0.29 h	2.947 ± 0.025 h	5.43 ± 0.56 h
MKVLVIGNGGREHALAWKAAQSPLVETVFVAPGNAGTALEPALQNVAIGVTDIPALLDFAQNEKIDLTIVGPEAPLVKGVVDTFRAAGLKIFGPTAGAAQLEGSKAFTKDFLARHKIPTAEYQNFTEVEPALAYLREKGAPIVIKADGLAAGKGVIVAMTLEEAEAAVHDMLAGNAFGDAGHRIVIEEFLDGEEASFIVMVDGEHVLPMATSQDHKRVGDKDTGPNTGGMGAYSPAPVVTDDVHQRTMERIIWPTVKGMAAEGNTYTGFLYAGLMIDKQGNPKVIEFNCRFGDPETQPIMLRMKSDLVELCLAACESKLDEKTSEWDERASLGVVMAAGGYPGDYRTGDVIHGLPLEEVAGGKVFHAGTKLADDEQVVTNGGRVLCVTALGHTVAEAQKRAYALMTDIHWDDCFCRKDIGWRAIEREQN	5.13 ± 0.32 h	4.89 ± 0.38 h	4.3 ± 0.28 h	4.91 ± 0.24 h	4.44 ± 0.17 h	3.38 ± 0.24 h	6.37 ± 0.4 h	10.5 ± 0.14 h	4.62 ± 0.25 h	7.03 ± 0.35 h	6.097 ± 0.048 h	12.7 ± 0.7 h
MIARWFWREWRSPSLLIVWLALSLAVACVLALGNISDRMEKGLSQQSREFMAGDRALRSSREVPQAWLEEAQKRGLKVGKQLTFATMTFAGDTPQLANVKAVDDIYPMYGDLQTNPPGLKPQAGSVLLAPRLMALLNLKTGDTIDVGDATLRIAGEVIQEPDSGFNPFQMAPRLMMNLADVDKTGAVQPGSRVTWRYKFGGNENQLDGYEKWLLPQLKPEQRWYGLEQDEGALGRSMERSQQFLLLSALLTLLLAVAAVAVAMNHYCRSRYDLVAILKTLGAGRAQLRKLIVGQWLMVLTLSAVTGGAIGLLFENVLMVLLKPVLPAALPPASLWPWLWALGTMTVISLLVGLRPYRLLLATQPLRVLRNDVVANVWPLKFYLPIVSVVVVLLLAGLMGGSMLLWAVLAGAVVLALLCGVLGWMLLNVLRRMTLKSLPLRLAVSRLLRQPWSTLSQLSAFSLSFMLLALLLVLRGDLLDRWQQQLPPESPNYFLINIATEQVAPLKAFLAEHQIVPESFYPVVRARLTAINDKPTEGNEDEALNRELNLTWQNTRPDHNPIVAGNWPPKADEVSMEEGLAKRLNVALGDTVTFMGDTQEFRAKVTSLRKVDWESLRPNFYFIFPEGALDGQPQSWLTSFRWENGNGMLTQLNRQFPTISLLDIGAILKQVGQVLEQVSRALEVMVVLVTACGMLLLLAQVQVGMRQRHQELVVWRTLGAGKKLLRTTLWCEFAMLGFVSGLVAAIGAETALAVLQAKVFDFPWEPDWRLWIVLPCSGALLLSLFGGWLGARLVKGKALFRQFAG	6.27 ± 0.098 h		6.06 ± 0.42 h	6.45 ± 0.35 h	6.86 ± 0.47 h	3.48 ± 0.66 h	6.92 ± 1.4 h		6.21 ± 1.2 h	13.3 ± 1.4 h	5.85 ± 0.5 h	10.5 ± 0.91 h
MKRNTKIALVMMALSAMAMGSTSAFAHGGHGMWQQNAAPLTSEQQTAWQKIHNDFYAQSSALQQQLVTKRYEYNALLAANPPDSSKINAVAKEMENLRQSLDELRVKRDIAMAEAGIPRGAGMGMGYGGCGGGGHMGMGHW [P0AAA9]										13 h		
